Among the data in patent US20230257470A1 (published 2023) are relative binding activity values, retold here.

Holding throughout (assay): SPR (Biacore), FcγR over captured antibody; binding amount divided by that of IL6R-BF648/IL6R-L x 100
In general terms: Surface plasmon resonance follows binding to a sensor surface in real time, without labels.

One experiment deals with T1, human FcγRIa (human, UniProt P12314 16-292, limits assumed).
T1 construct: also called FcgRIa; FcγRI (CD64)

Another experiment has as its target T2, human FcγRIIa type R (human, UniProt P12318 36-217).
T2 construct: also called FcgRIIaR; FcγRIIa(R)
T2 chain: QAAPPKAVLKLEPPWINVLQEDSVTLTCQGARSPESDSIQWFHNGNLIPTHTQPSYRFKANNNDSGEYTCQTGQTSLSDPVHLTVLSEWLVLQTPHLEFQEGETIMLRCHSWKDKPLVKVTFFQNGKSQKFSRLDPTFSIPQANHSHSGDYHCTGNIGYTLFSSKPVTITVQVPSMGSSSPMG

For a further experiment, the target named is T3, human FcγRIIa type H (human, UniProt P12318 36-217).
T3 construct: also called FcgRIIaH; FcγRIIa(H)
T3 sequence: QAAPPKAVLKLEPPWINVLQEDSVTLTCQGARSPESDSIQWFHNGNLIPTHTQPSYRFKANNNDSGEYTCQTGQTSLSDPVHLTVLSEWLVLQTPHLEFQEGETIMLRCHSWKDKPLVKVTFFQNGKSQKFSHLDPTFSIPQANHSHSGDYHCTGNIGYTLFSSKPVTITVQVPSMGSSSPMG

A further experiment deals with T4, human FcγRIIb (human, UniProt P31994 43-217, limits assumed).
T4 construct: also called FcgRIIb; FcγIIB
T4 sequence: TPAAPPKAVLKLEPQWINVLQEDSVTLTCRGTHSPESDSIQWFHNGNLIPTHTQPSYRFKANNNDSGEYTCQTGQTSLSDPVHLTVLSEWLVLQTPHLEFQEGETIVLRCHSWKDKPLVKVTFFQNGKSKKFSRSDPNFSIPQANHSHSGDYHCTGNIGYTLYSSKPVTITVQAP

Another experiment deals with T5, human FcγRIIIa type V (human, UniProt P08637 17-208, limits assumed).
T5 construct: also called FcgRIIIaV; FcγRIIIa(V)
T5 sequence (P08637 other isoform, or with tags, fused parts or gaps limits assumed): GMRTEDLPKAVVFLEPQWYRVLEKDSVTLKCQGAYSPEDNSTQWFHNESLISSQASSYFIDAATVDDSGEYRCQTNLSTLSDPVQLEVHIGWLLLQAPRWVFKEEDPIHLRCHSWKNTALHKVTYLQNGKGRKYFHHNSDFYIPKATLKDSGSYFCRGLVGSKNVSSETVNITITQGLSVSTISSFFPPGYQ

T1 sequence (P12314 16-292 limits assumed): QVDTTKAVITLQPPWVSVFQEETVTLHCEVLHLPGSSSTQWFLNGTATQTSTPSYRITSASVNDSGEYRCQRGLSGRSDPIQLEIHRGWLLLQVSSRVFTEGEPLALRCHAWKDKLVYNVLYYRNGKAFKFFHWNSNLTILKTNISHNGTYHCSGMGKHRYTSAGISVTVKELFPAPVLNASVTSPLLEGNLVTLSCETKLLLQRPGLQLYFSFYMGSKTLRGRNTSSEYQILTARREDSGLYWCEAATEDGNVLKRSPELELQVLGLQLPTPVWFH
Description for human FcγRIIIa type V: (§1) According to the following method, relative binding activities were calculated for the results of analyzing interactions with the respective FcγRs.
Description for human FcγRIIa type H: as §1
Description for human FcγRIIa type R: as §1
Description for human FcγRIIb: as §1
Description for human FcγRIa: as §1

B1: IL6R-BP082/IL6R-L (antibody, human IgG1, name in EU numbering)
heavy: QVQLQESGPGLVKPSETLSLTCAVSGHSISHDHAWSWVRQPPGEGLEWIGFISYSGITNYNPSLQGRVTISRDNSKNTLYLQMNSLRAEDTAVYYCARSLARTTAMDYWGEGTLVTVSSASTKGPSVFPLAPSSKSTSGGTAALGCLVKDYFPEPVTVSWNSGALTSGVHTFPAVLQSSGLYSLSSVVTVPSSSLGTQTYICNVNHKPSNTKVDKKVEPKSCDKTHTCPPCPAPDLLGGDSVFLFPPKPKDTLMISRTPEVTCVVVDVSHEDPEVKFNWYVDGVEVHNAKTKPREEQYNSTYRVVSVLTVLHQDWLNGKEYKCKVSNKALPKPIEKTISKAKGQPREPQVYTLPPSRDELTKNQVSLTCLVKGFYPSDIAVEWESNGQPENNYKTTPPVLDSDGSFFLYSKLTVDKSRWQQGNVFSCSVMHEALHNHYTQESLSLSP
light: DIQMTQSPSSLSASVGDRVTITCRASQDISSYLNWYQQKPGKAPKLLIYYTSRLHSGVPSRFSGSGSGTDFTFTISSLQPEDIATYYCQQGNTLPYTFGQGTKVEIK
notes: copies: 2 + 2
With B1, the relative binding activity in the experiment with human FcγRIa is 74 relative (IL6R-BF648/IL6R-L = 100); with human FcγRIIa type R it was 126 relative (IL6R-BF648/IL6R-L = 100); with human FcγRIIa type H, 106 relative (IL6R-BF648/IL6R-L = 100); in the experiment with human FcγRIIb it was 136 relative (IL6R-BF648/IL6R-L = 100); with human FcγRIIIa type V, 87 relative (IL6R-BF648/IL6R-L = 100).

B2: IL6R-2B261/IL6R-L (antibody, human IgG1, name in EU numbering)
heavy: QVQLQESGPGLVKPSETLSLTCAVSGHSISHDHAWSWVRQPPGEGLEWIGFISYSGITNYNPSLQGRVTISRDNSKNTLYLQMNSLRAEDTAVYYCARSLARTTAMDYWGEGTLVTVSSASTKGPSVFPLAPSSKSTSGGTAALGCLVKDYFPEPVTVSWNSGALTSGVHTFPAVLQSSGLYSLSSVVTVPSSSLGTQTYICNVNHKPSNTKVDKKVEPKSCDKTHTCPPCPAPDLLGGDSVFLFPPKPKDTLMISRTPEVTCVVVDVSHEDPEVKFNWYVDGVEVHNAKTKPREEQDNSTYRVVSVLTVLHQDWLNGKEYKCKVSNKALPAPIEKTISKAKGQPREPQVYTLPPSRDELTKNQVSLTCLVKGFYPSDIAVEWESNGQPENNYKTTPPVLDSDGSFFLYSKLTVDKSRWQQGNVFSCSVMHEALHNHYTQESLSLSP
light: DIQMTQSPSSLSASVGDRVTITCRASQDISSYLNWYQQKPGKAPKLLIYYTSRLHSGVPSRFSGSGSGTDFTFTISSLQPEDIATYYCQQGNTLPYTFGQGTKVEIK
notes: copies: 2 + 2
Turning to B2, the relative binding activity with human FcγRIa is 100 relative (IL6R-BF648/IL6R-L = 100); with human FcγRIIa type R it was 94 relative (IL6R-BF648/IL6R-L = 100); with human FcγRIIa type H, 91 relative (IL6R-BF648/IL6R-L = 100); with human FcγRIIb it was 115 relative (IL6R-BF648/IL6R-L = 100); with human FcγRIIIa type V it was 87 relative (IL6R-BF648/IL6R-L = 100).

B3: IL6R-BP085/IL6R-L (antibody, human IgG1, name in EU numbering)
heavy: QVQLQESGPGLVKPSETLSLTCAVSGHSISHDHAWSWVRQPPGEGLEWIGFISYSGITNYNPSLQGRVTISRDNSKNTLYLQMNSLRAEDTAVYYCARSLARTTAMDYWGEGTLVTVSSASTKGPSVFPLAPSSKSTSGGTAALGCLVKDYFPEPVTVSWNSGALTSGVHTFPAVLQSSGLYSLSSVVTVPSSSLGTQTYICNVNHKPSNTKVDKKVEPKSCDKTHTCPPCPAPELLGDDSVFLFPPKPKDTLMISRTPEVTCVVVDVSHEDPEVKFNWYVDGVEVHNAKTKPREEQYNSTYRVVSVLTVLHQDWLNGKEYKCKVSNKALPKPIEKTISKAKGQPREPQVYTLPPSRDELTKNQVSLTCLVKGFYPSDIAVEWESNGQPENNYKTTPPVLDSDGSFFLYSKLTVDKSRWQQGNVFSCSVMHEALHNHYTQESLSLSP
light: DIQMTQSPSSLSASVGDRVTITCRASQDISSYLNWYQQKPGKAPKLLIYYTSRLHSGVPSRFSGSGSGTDFTFTISSLQPEDIATYYCQQGNTLPYTFGQGTKVEIK
notes: copies: 2 + 2
B3: the relative binding activity with human FcγRIa is 19 relative (IL6R-BF648/IL6R-L = 100); with human FcγRIIa type R it was 279 relative (IL6R-BF648/IL6R-L = 100); in the experiment with human FcγRIIa type H it was 158 relative (IL6R-BF648/IL6R-L = 100); with human FcγRIIb it was 152 relative (IL6R-BF648/IL6R-L = 100); with human FcγRIIIa type V, 104 relative (IL6R-BF648/IL6R-L = 100).

B4: IL6R-BP084/IL6R-L (antibody, human IgG1, name in EU numbering)
heavy: QVQLQESGPGLVKPSETLSLTCAVSGHSISHDHAWSWVRQPPGEGLEWIGFISYSGITNYNPSLQGRVTISRDNSKNTLYLQMNSLRAEDTAVYYCARSLARTTAMDYWGEGTLVTVSSASTKGPSVFPLAPSSKSTSGGTAALGCLVKDYFPEPVTVSWNSGALTSGVHTFPAVLQSSGLYSLSSVVTVPSSSLGTQTYICNVNHKPSNTKVDKKVEPKSCDKTHTCPPCPAPELLGGDSVFLFPPKPKDTLMISRTPEVTCVVVDVSHEDPEVKFNWYVDGVEVHNAKTKPREEQYNSTYRVVSVLTVLHQDWLNGKEYKCKMSNKALPKPIEKTISKAKGQPREPQVYTLPPSRDELTKNQVSLTCLVKGFYPSDIAVEWESNGQPENNYKTTPPVLDSDGSFFLYSKLTVDKSRWQQGNVFSCSVMHEALHNHYTQESLSLSP
light: DIQMTQSPSSLSASVGDRVTITCRASQDISSYLNWYQQKPGKAPKLLIYYTSRLHSGVPSRFSGSGSGTDFTFTISSLQPEDIATYYCQQGNTLPYTFGQGTKVEIK
notes: copies: 2 + 2
For the molecule B4, the relative binding activity in the experiment with human FcγRIa is 109 relative (IL6R-BF648/IL6R-L = 100); with human FcγRIIa type R it was 203 relative (IL6R-BF648/IL6R-L = 100); with human FcγRIIa type H it was 162 relative (IL6R-BF648/IL6R-L = 100); with human FcγRIIb, 141 relative (IL6R-BF648/IL6R-L = 100); with human FcγRIIIa type V, 106 relative (IL6R-BF648/IL6R-L = 100).

B5: IL6R-BP083/IL6R-L (antibody, human IgG1, name in EU numbering)
heavy: QVQLQESGPGLVKPSETLSLTCAVSGHSISHDHAWSWVRQPPGEGLEWIGFISYSGITNYNPSLQGRVTISRDNSKNTLYLQMNSLRAEDTAVYYCARSLARTTAMDYWGEGTLVTVSSASTKGPSVFPLAPSSKSTSGGTAALGCLVKDYFPEPVTVSWNSGALTSGVHTFPAVLQSSGLYSLSSVVTVPSSSLGTQTYICNVNHKPSNTKVDKKVEPKSCDKTHTCPPCPAPELLGGDSVFLFPPKPKDTLMISRTPEVTCVVVDVSHEDPEVKFNWYVDGVEVHNAKTKPREEQDNSTYRVVSVLTVLHQDWLNGKEYKCKVSNKALPKPIEKTISKAKGQPREPQVYTLPPSRDELTKNQVSLTCLVKGFYPSDIAVEWESNGQPENNYKTTPPVLDSDGSFFLYSKLTVDKSRWQQGNVFSCSVMHEALHNHYTQESLSLSP
light: DIQMTQSPSSLSASVGDRVTITCRASQDISSYLNWYQQKPGKAPKLLIYYTSRLHSGVPSRFSGSGSGTDFTFTISSLQPEDIATYYCQQGNTLPYTFGQGTKVEIK
notes: copies: 2 + 2
Regarding B5, the relative binding activity with human FcγRIa is 50 relative (IL6R-BF648/IL6R-L = 100); with human FcγRIIa type R, 87 relative (IL6R-BF648/IL6R-L = 100); with human FcγRIIa type H, 91 relative (IL6R-BF648/IL6R-L = 100); with human FcγRIIb it was 122 relative (IL6R-BF648/IL6R-L = 100); with human FcγRIIIa type V, 107 relative (IL6R-BF648/IL6R-L = 100).

B6: IL6R-BF648/IL6R-L (antibody, human IgG1, name in EU numbering)
heavy: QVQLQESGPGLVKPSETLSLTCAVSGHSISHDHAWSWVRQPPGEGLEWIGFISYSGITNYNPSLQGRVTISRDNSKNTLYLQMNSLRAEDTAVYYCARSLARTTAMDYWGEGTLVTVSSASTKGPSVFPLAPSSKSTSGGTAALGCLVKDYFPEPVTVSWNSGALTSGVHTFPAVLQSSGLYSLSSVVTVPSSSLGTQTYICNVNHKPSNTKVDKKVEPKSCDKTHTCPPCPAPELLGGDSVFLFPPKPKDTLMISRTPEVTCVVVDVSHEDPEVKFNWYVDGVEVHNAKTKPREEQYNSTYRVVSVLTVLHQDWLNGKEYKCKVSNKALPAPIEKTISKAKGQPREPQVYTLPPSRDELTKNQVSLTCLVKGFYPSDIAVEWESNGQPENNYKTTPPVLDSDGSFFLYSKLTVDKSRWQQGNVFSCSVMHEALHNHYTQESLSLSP
light: DIQMTQSPSSLSASVGDRVTITCRASQDISSYLNWYQQKPGKAPKLLIYYTSRLHSGVPSRFSGSGSGTDFTFTISSLQPEDIATYYCQQGNTLPYTFGQGTKVEIK
notes: copies: 2 + 2
B6: the relative binding activity with human FcγRIa, in the experiment with human FcγRIIa type R, in the experiment with human FcγRIIa type H, with human FcγRIIb and in the experiment with human FcγRIIIa type V was 100 relative (IL6R-BF648/IL6R-L = 100) each time.

B7: IL6R-B3/IL6R-L (antibody, human IgG1)
heavy: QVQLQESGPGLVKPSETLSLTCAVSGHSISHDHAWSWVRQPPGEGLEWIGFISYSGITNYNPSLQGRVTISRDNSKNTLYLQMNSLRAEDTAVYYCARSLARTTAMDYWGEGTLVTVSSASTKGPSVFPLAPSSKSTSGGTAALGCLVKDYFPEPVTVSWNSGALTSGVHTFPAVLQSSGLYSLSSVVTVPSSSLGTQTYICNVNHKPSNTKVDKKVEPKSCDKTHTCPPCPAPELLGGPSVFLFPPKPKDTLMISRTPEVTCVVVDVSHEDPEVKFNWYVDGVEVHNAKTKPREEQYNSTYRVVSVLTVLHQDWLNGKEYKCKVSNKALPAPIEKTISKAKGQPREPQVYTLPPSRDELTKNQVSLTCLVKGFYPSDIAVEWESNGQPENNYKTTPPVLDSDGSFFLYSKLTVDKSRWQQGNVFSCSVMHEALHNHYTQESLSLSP
light: DIQMTQSPSSLSASVGDRVTITCRASQDISSYLNWYQQKPGKAPKLLIYYTSRLHSGVPSRFSGSGSGTDFTFTISSLQPEDIATYYCQQGNTLPYTFGQGTKVEIK
notes: IL6R-G1d with K439E (EU numbering); parent polypeptide of the variants; copies: 2 + 2
In the case of B7, the relative binding activity with human FcγRIa is 145 relative (IL6R-BF648/IL6R-L = 100); with human FcγRIIa type R, 625 relative (IL6R-BF648/IL6R-L = 100); in the experiment with human FcγRIIa type H, 1600 relative (IL6R-BF648/IL6R-L = 100); with human FcγRIIb, 58 relative (IL6R-BF648/IL6R-L = 100); in the experiment with human FcγRIIIa type V, 3260 relative (IL6R-BF648/IL6R-L = 100).

B8: IL6R-2B253/IL6R-L (antibody, human IgG1, name in EU numbering)
heavy: QVQLQESGPGLVKPSETLSLTCAVSGHSISHDHAWSWVRQPPGEGLEWIGFISYSGITNYNPSLQGRVTISRDNSKNTLYLQMNSLRAEDTAVYYCARSLARTTAMDYWGEGTLVTVSSASTKGPSVFPLAPSSKSTSGGTAALGCLVKDYFPEPVTVSWNSGALTSGVHTFPAVLQSSGLYSLSSVVTVPSSSLGTQTYICNVNHKPSNTKVDKKVEPKSCDKTHTCPPCPAPDLLGGDSVFLFPPKPKDTLMISRTPEVTCVVVDVSHEDPEVKFNWYVDGVEVHNAKTKPREEQYNSTYRVVSVLTVLHQDWLNGKEYKCKMSNKALPAPIEKTISKAKGQPREPQVYTLPPSRDELTKNQVSLTCLVKGFYPSDIAVEWESNGQPENNYKTTPPVLDSDGSFFLYSKLTVDKSRWQQGNVFSCSVMHEALHNHYTQESLSLSP
light: DIQMTQSPSSLSASVGDRVTITCRASQDISSYLNWYQQKPGKAPKLLIYYTSRLHSGVPSRFSGSGSGTDFTFTISSLQPEDIATYYCQQGNTLPYTFGQGTKVEIK
notes: copies: 2 + 2
Take B8: the relative binding activity with human FcγRIa was 155 relative (IL6R-BF648/IL6R-L = 100); with human FcγRIIa type R, 288 relative (IL6R-BF648/IL6R-L = 100); with human FcγRIIa type H, 207 relative (IL6R-BF648/IL6R-L = 100); with human FcγRIIb, 156 relative (IL6R-BF648/IL6R-L = 100); with human FcγRIIIa type V, 126 relative (IL6R-BF648/IL6R-L = 100).
